# Measured values reported in the DeepSol protein solubility set.
# Test: soluble on expression in E. coli; label from the status in PepcDB or PDB records
row,Sequence,soluble on expression in E. coli
1,MPEYKAPLRDMRFLIDEVFDFHGRYQALGASDATPDMVAAILDEGSKFCEQVLAPLNRSGDEEGCHFDNGVVTTPKGFKEAYAQYVEGGWNGVASDPAYGGQGLPHSLGLLLSEMIGASNVSWGMYPGLTRGAMSAIHAHGSQAQKDLYLARMTAGTWTGTMCLTEPHCGTDLGIIKTRAVPNADGSHAISGTKIFISAGEHDLSENIVHLVLAKLPDAPAGTKGISLFIVPKFLPDAEGNVGARNAVSCGSIEHKMGIKASATCVMNFDGATGYLIGEPNKGLHCMFTMMNHARLGTGMQGLCLGETSYQGAVRYARERLQMRSLTGPKAPDKPADPIIVHPDVRRMLLTMKAFNEGNRALAYFTAQLLDTEHLSQDAAERERAADLLAFLTPICKAFMTETGQEVTNLGMQVYGGHGYIREWGMEQLVRDCRIAQIYEGTNGIQALDLLGRKVLGSQGKLLRGFTKLVHQLCQAQAEHPQLKGQVAQLAALNAQWGELTQQVGLAAMKNADEVGAASVDYLMFSGYVTLAYFWLRIALVAREKLDAGSGEAAFYEAKLATADFYFSR,not soluble
2,GMSIVGNVENLINGVGELWNKYVKHEFILKMRDGSLPLDIFRYYLIQDGKYVEDMLRALLIASSKGPIDKVTKILNLVFSSRDKGLETHGKLYSKLDISRDVIVKTGYNLINYAYTRHLYYYANLDWNKFLVAWTPCMFGYSIVGDYVIDSPNEVYKTWASFYASTEYKKRIEAILYALDEVSITEDLLNIFINSVRFEIGFWDASLRKDPTVY,soluble
3,MGNPTGFINVGRALPTERKAGERLSDWLEVYEEIPLKAVEKQASRCMDCGVPFCQSAKSEFAPAVAGCPVNNVIPEWNDLIYRGRWKDAIELLHKTNNFPEFTGRVCPAPCEGACVLGINADPVAIKLHEKEIIDHAFKEGWVVAQPPSARTGKNVAVIGSGPAGLAAAAQLNKAGHMVTVYERADRIGGLLMYGIPNMKLQKELVQRRVDILAEEGIVFVTNTEVGKDVSVEKLESDFDAIVLCIGATVPRDLPVEGRELNGVHFAMDFLKANTKSLLDSEHKDGQYINAQGKNVVVIGGGDTGTDCIGTSLRHQCTNALQLEIMPRPPEKREENNNPWPQWPKRLLVDYGQKEAIEIQGQDPRQYLVMTKKIESDVQGNVKAVHTVDITWERNDKGQMFPQEVAGSEKAIPADIVLIAMGFMGPEGGLVEQFGLEQDNRSNIAAEYDKFATSKQGVFAAGDGRRGQSLIVWAIDEGRRCAREVDSYLMGKSYLPLEHHHHHH,not soluble
4,MLLLLTFIESPIAGIPEIRKHNCLVLPHIFVCLVITKSFGRVVTSGAAVTKRAAGYFGYLAHCAADETTWYACEQFVIGHARKAVTHFIYLA,not soluble
5,MSTSQPREQFLLISALGPNPMELTTLLCRACVESRCAVVSSRLTRHGEFSALVLQISGSWDALARLEGSLPALTKRGDITLSMTRSNAHVTRAQALPYVAYVSAVYRPDILNELCQFFIDHNIELENLTCDTYQAPHTNTTMLNATITVTLPAGTQISWLRDQFLDFADALNLDALIEPWRPQHP,not soluble
6,MDPGQRPNPFGAPGAIPKKPCLSQGSPGTSGSGAPCDEPSRSESPGEGPSGTGGSAAAGDITRQAVVAAITEWSRTRQLRISTGASEGKASIKDWIVCQVNSGKFPGVEWEDEERTRFRIPVTPLADPCFEWRRDGELGVVYIRERGNMPVDASFKGTRGRRRMLAALRRTRGLQEIGKGISQDGHHFLVFRVRKPEEEQCVECGVVAGAVHDFNNMARLLQEGFFSPGQCLPGEIVTPVPSCTTAEGQEAVIDWGRLFIRMYYNGEQVHELLTTSQSGCRISSALRRDPAVHYCAVGSPGQVWLPNVPNLACEIAKRELCDTLDACAKGILLTSSCNGIFCVCYHNGPVHFIGNTVPPDSGPLLLPQGKPTRIFNPNTFLVGLANSPLPAPSHVTCPLVKLWLGKPVAVGKLEPHAPSPRDFAARCSNFSDACVVLEIMPKPLWDAMQ,soluble
7,MVALAILRVEKLKSFGNVGGSEKHTARLQDTPNADTTKKNIRLIGMEDNSSLEDLVKTKIANTTKHKPRKDAVLCSEMFLSASPEYFRPDDPSRAGEWNHERMVLFAGASRQWLINNYGDKCVRAELHLDEATPHIHAYIVPINDKTKQLSHKEMFGGNGRVGSIKLSKLQDSYASALAPLGIERGVKGSKATHTKVKEYYQAVNSEPLTAVWSNKKLAPQPLESATNYVARIQNDDQFHAINHQLADRAFMQERLERAEQRARASEKERQRLEKEVRSLELKTQQLRDLELLDVAWELGLDYERERWRGHGHIINIDGSKFYDFSPDQQKGGGGAIDLVMHVNQCNFRQAVVWLHERFGEAGVERAAIAHVKNRAADIIQAEPRPQFTPPVENKANWPAVERYLTQQRGIPSDCLQMLQNLGLLYADDQQNAVFVMRDLEGQTSGAFLRGTRGENNSFKGYSKGTKRSDSWFYFGLGGQATDKVAHVLLCSSPIEAVSRAMLEYFVRGNVPPERTLYMAVDNINSLPVERLQNVPNILVTFGKDQSTNAAAQRVLELLPQSQQVLSKAADWNQQLLEYGWQLRRQQYQQQDDELSILEHHHHHH,not soluble
8,MAGTSFLSDLLSGVTERGRALLFSGSKARDRVVDTDIETLCEMLLSSRGEASGMAIAAEILDRWSRFNAAEAVQFLHMLSDRFGAEAAALDKAIDAYRTDKSPMAVIALHNAAEPRRQELLRRLNLAPNGTQKLVRMRERLLETKEDRADLGAVDTDFAHLFSSWFNRGFLTLQPIDWTTPAHILEKIIKYEAVHEIAGWEELRRRLAPADRRCFAFFHPRLRDDPLVFVEVALTRSIPSAIADVLDESRDHIGADTATTAVFYSISNCQDGLRGISFGNFLIKQVVEDLRRDLPGLKEFVTLSPVPGFARWISKIRDPKSGFPLSPEDRNTLVLLDDPTWPEDKARADAVERILLPLAARYFITERTPDNRPVDPVARFHLGNGARLERLNFLGDRSVKAMRQAHGLMVNYLYKLEDIETNHEALAQRGEVAASPAVKALQGKIEPILPEKPKLEHHHHHH,soluble
9,MSLKAVIGISASEVTIQSGPFMGEPRTYVNAAYVDSVLKNGGIPLVIPFTAGGEEMAFKQLDLVDGLILSGGHDLNPHLYGEEIDQKSGETWPDRDAFDMALLKRAEETGKPVLGICRGAQIINVAHGGSMWQDLSLRPGNTLKHMQAIRPDVGTHVVKIKSGTTLKKIMGKSSLMTNSFHHQLIKEVAPDLTESASASDGVTEALESTDGKVIAVQWHPEEMHANPAPEAAIMNRLFKYLIDKAEEEKEGHHHHHH,soluble
10,MRGSHHHHHHGSDLGKKLLEAARAGQDDEVRILMANGADVNANDWFGITPLHLVVNNGHLEIIEVLLKYAADVNASDKSGWTPLHLAAYRGHLEIVEVLLKYGADVNAMDYQGYTPLHLAAEDGHLEIVEVLLKYGADVNAQDKFGKTAFDISIDNGNEDLAEILQKLN,soluble
11,MTGKLPKACVIGAGCSGFTTIKRLKDYGIPYDCFEMSDEVGGNWYYKNPNGLSACYESLHIDTSKWRLAFEDFPVPKDWPDFPHHAQLFQYFKDYVDHFGLRPTITFNTKVESAKRTADGLWAVTLSGGETQFYDVLFVCNGHHWDPRVPEYPGEFDGPAFHAHAYCDPFDPVDMRGKNVVVVGMGNSAMDIASELSQRPIAKNLWVSARRGVWVFPKYLNGKPADKTALPAWMPRKLGVALSRSVLKKTIGRMEDYGLPKPDHEPLEAHPSVSGEFLTRAGCGDIKFKPAIKALEGKRVRFTDDSVEDVDAIVFATGYKISFPFFDDPALLPDADHRLPLFKRMMKPEVPNLFYMGLAQPLPTLVNFAEQQAKLAAAYLAGQYALPPPAEMARITAKDEHRHTGHFYDSARHTIQVDFNVYCADLKKEIAKGEARARNAGGKLPVAARAEGQALAAELEHHHHHH,soluble
12,MGSDKIHHHHHHMLEVKKLTVCYNDFLALNEISLKIQEGALTGIFGPNGAGKSTLLKAMLNIIPHQGEVSINNEDINKKLVKIAYVEQKADIDFTFPIKVKECVSMGTYAGMKVFQRIKNAEWQKVSKALEKVDMGKYSNHQIGELSGGQFQRVLLARCLAQNADFIFLDEPFVGIDLVSERIIMDTLKELKHQGKTVLIVHHDLSKVKKYFDNIILLNRNLIAHGSVESVFNEENLKKAYGDTIFIGEGE,not soluble
13,MIHLARRRIVLTTPYFVPDEATLSALRIAGTSGVDVQLILSESNNQFLMAWAQEAYFEELLRAGIKIALYRPHFLHAKHLSVDDDIALFGSINLDIRSFALNAEIGMICYDSRIVTQLREVESDYLANARQLNLVEWQQRPAWRRSREGIARLADALM,not soluble
14,QELPTDLSEVFVDFSKEPLASGSVAQTHRARLLSGQEVIIKIQRPGIDDIVKEDIQLLIKLARHIPKHFISMVDVQEVLENLCETLIKELDFKNEAEAMKRFRANNKRVVCLGVPEVY,not soluble
15,MSLENPTSIQIWHYYNGQQKMAFDKLVKEFNDTVGAEKGIIVEAFSQGNVVDLSEKVLDSANKKVGSEDVPNIFAAYSDTAYEMDKLGLLVDMDKYISKEELNEYIDEYVEEGRINSKDEFKLFPIAKSTEILMLNKTDWDKFAKATNSNINDIKTIEGLVETSKKYYEWTDSLTKEPNDGKAFFGRDALANYIIIGSKQLGVEIFSVKDGKVTLNIDEKVMKKLWDNFYVPYINGYFASYGKFRSDDAKTGDILALVGSSSGAAYFPDRVMLNDNESYNIETSVFQAPRFKGEGKYAVQQGAGMAVTKSTKEEEYASVEFLKWFTDKEPNIKFSIASGYLPVKKKTNDLDVIKEVMKKDNLSLSDKVEGSIASSIEQINSCNLYTNKAFDGGTKARQILEYSMLDKAKEDSNKINELVKSGTSKKDAVAQFNNDKNFKTWFEIFKAELENAIKEGHHHHHH,soluble
16,MGHHHHHHSHMSERSVSKRTEQKRWYTVQAPEQFDREVLGKTPAEEPDKVLGRTIETTLGELTNDASENNTKLTFKINEVASDSAYTEFIRHELTRDYLRSLVRRGSSKVEAYITVLTTDDYRVQIQPVAVTTKKADASQEKAIRRTMIDLVRETAEDHTFEQLIDSVVEGRLSSAIYGEAKDIYPLRRVEIKKTTLEARPEEVAAEEETAVDVDEEDVDVEA,soluble
17,MSQAELFTISDLAREFDVTLRTIRFYEEQGLIEPQRDGRQRLFTRRDRGRLKLILRGKRIGLSLAEIREIIDMYQLARDEASQSQKLLDLLLARRRQLEAQRRDIDAVLDEIATLENHCRDVIDSQSSVA,not soluble
18,KIRDELRAERTFIDQALDSLADIFYVIDSAGTVQRCNEQFATLAGYADEKISDLDALSLFPEEEREGVSEAIEEALTTGQSTIEAEFRTAAGKRVPHEFTADRLTDQDGDLIGLVGTGRDIS,not soluble
19,MSLSQTTNIKEQTDTGLAPPAPAITTNSAAIEEQANSSIRKLYHTLNTMPNTSMADRISQISAYFKGTKYILGSLGEGPNARYDQFPRYRVDGFDCDTYVNTVLSLALANSLESFQECLKHTRYKNGKRSYINRNHFTSIDWNNYNQKRGLLKDITFSIRNEKKQPVALYANALINKPQWYNHKTIDTIRLQKQDKNEQEKRLVELKAKGKTLETSLSNVPYIPFTALFSENKPNLHLFSQIPNGAVIEIIRPNWDLRQQIGTELDISHLGFAIWINNELFFRQASSQYGKVVDVSLIDYLDKARSSPTIKGINIQVVLPEKPVSNGCQLFDIREGHHHHHH,soluble
20,MGSDKIHHHHHHMDLQNKTLLITGIDEFIGLRAAELAITQGMKVRGLQTSTNKDKAQKLGAEVIVGSITDAAIAHKACQGVDIVLHTEQLTEEAGPIKNFREINVNGAVNMAKAAKNAGVKCFVHLSSVMVYGFNYSDRITESGTLSGDNNPYCQTKIEAETELLPLNSPPDFGLIIIRAGDIYGPGSIPWIVRPILMMRQKLFAYANEGQGVINHVYIDNLIDAIFLAVEKDAYGEIFNITDGEETSWKEYFMRLAAMEGASAPMSIPKDEMKLFLKLRNQGQKLFRKKADILPESVDFMTRPYAYSITKAQTILDYKPKVDLEQGLSQTKIWLQNTDIQKLVK,not soluble
